Data on 11 molecules can be found in paper PMC12871924, “Human FASTK preferentially binds single‐stranded and G‐rich RNA”.

The target of data set [1] is T1, FASTK∆N1-75 (Homo sapiens, UniProt Q14296 76-549, del1-75).
T1 sequence: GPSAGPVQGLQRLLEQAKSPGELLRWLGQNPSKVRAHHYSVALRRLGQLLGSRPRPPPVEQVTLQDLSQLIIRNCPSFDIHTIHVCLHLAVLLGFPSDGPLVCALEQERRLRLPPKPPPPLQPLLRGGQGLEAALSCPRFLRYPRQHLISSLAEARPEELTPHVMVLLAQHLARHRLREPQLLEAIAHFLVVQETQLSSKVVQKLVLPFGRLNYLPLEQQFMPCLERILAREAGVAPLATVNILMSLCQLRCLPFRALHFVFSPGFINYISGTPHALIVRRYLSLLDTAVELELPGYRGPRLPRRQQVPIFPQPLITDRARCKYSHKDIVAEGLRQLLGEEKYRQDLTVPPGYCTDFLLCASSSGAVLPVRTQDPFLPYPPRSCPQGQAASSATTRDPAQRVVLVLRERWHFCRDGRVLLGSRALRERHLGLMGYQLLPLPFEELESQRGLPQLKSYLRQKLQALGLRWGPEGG
Put plainly: MST; MST: 1x PBS, 5% glycerol, 1 mM DTT, Tween-20 (0.05% in RNA stock), 20 nM RNA, 22 °C; RNA annealed in 50 mM Tris/HCl pH 7.5, 50 mM KCl (or LiCl), 50 mM NaCl; EMSA: same solutions, on ice; footprinting: 1x Structure Buffer, 37 °C. The conditions noted are these: protein: recombinant, tags: His6-SUMO cleaved. In general terms: In EMSA bound probe runs differently from free probe, usually more slowly.

For data set [2], the target named is T1, FASTK∆N1-75. The data set can be described thus: MST; same as unmutated oligo 5; MST: 1x PBS, 5% glycerol, 1 mM DTT, Tween-20 (0.05% in RNA stock), 20 nM RNA, 22 °C; RNA annealed in 50 mM Tris/HCl pH 7.5, 50 mM KCl (or LiCl), 50 mM NaCl; EMSA: same solutions, on ice; footprinting: 1x Structure Buffer, 37 °C. The conditions noted are these: protein: recombinant; tags: His6-SUMO cleaved; label: Cy5 body (CTP or UTP).

Data set [3] concerns the target T2, FASTK∆N1-75 R249/R251 mutant (Homo sapiens, UniProt Q14296 76-549, R249A;R251A;del1-75).
T2 sequence: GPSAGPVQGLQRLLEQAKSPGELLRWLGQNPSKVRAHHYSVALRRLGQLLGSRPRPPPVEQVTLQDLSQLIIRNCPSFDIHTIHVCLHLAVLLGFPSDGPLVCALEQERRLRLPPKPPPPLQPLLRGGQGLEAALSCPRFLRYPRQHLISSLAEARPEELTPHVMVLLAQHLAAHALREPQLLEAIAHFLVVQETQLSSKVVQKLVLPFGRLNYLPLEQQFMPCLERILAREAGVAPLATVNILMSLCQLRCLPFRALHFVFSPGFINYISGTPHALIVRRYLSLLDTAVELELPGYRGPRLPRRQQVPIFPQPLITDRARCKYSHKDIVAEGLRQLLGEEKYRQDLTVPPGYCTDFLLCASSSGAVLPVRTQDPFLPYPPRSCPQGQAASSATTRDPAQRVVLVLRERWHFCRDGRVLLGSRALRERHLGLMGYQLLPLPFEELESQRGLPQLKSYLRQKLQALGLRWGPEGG
The data set can be described thus: MST; MST: 1x PBS, 5% glycerol, 1 mM DTT, Tween-20 (0.05% in RNA stock), 20 nM RNA, 22 °C; RNA annealed in 50 mM Tris/HCl pH 7.5, 50 mM KCl (or LiCl), 50 mM NaCl; EMSA: same solutions, on ice; footprinting: 1x Structure Buffer, 37 °C. The conditions noted are these: protein: recombinant; tags: His6-SUMO cleaved; label: Cy5 body (CTP or UTP); 5' 32P in footprinting; predicted G4.

In data set [4] the target is T1, FASTK∆N1-75. Put plainly: MST; 100 mM K+, no Na+; better than AU-rich mutant; MST: 1x PBS, 5% glycerol, 1 mM DTT, Tween-20 (0.05% in RNA stock), 20 nM RNA, 22 °C; RNA annealed in 50 mM Tris/HCl pH 7.5, 50 mM KCl (or LiCl), 50 mM NaCl; EMSA: same solutions, on ice; footprinting: 1x Structure Buffer, 37 °C. The conditions noted are these: protein: recombinant; tags: His6-SUMO cleaved; label: Cy5.

In data set [5] the target is T1, FASTK∆N1-75. Put plainly: MST; same as unmutated oligo 10; MST: 1x PBS, 5% glycerol, 1 mM DTT, Tween-20 (0.05% in RNA stock), 20 nM RNA, 22 °C; RNA annealed in 50 mM Tris/HCl pH 7.5, 50 mM KCl (or LiCl), 50 mM NaCl; EMSA: same solutions, on ice; footprinting: 1x Structure Buffer, 37 °C. The conditions noted are these: protein: recombinant; tags: His6-SUMO cleaved; label: Cy5 body (CTP or UTP).

In data set [6] the target is T1, FASTK∆N1-75. The data set can be described thus: MST; K+ annealed; MST: 1x PBS, 5% glycerol, 1 mM DTT, Tween-20 (0.05% in RNA stock), 20 nM RNA, 22 °C; RNA annealed in 50 mM Tris/HCl pH 7.5, 50 mM KCl (or LiCl), 50 mM NaCl; EMSA: same solutions, on ice; footprinting: 1x Structure Buffer, 37 °C. The conditions noted are these: protein: recombinant, tags: His6-SUMO cleaved, label: Cy5.

A word on the Kd: it is the concentration at which binding is half-saturated.

B1: A-rich short RNA (ssRNA)
RNA: AAAUCUGUAAAAUC
In the case of B1, in the data set with FASTK∆N1-75 [1] (label: Cy5), the Kd was determined as 78.4 nM.

B2: ND6 oligo 5 G4kill mutant (ssRNA)
RNA: GAGUGGUCAGAGUUGAUUCGUGAGGAUCCUAUUGGUGCGGAGGCUUUGUAUGAUUAUGUGCGUUGAUUAGUAGUAGUUACUGGUUGAACAUUGUUUGUUGGUGUAUAUAUUGUAAUUGAGAUUGC
As to B2, the binding result with FASTK∆N1-75 [2] was “binds”.

B3: ND6 oligo 5 (structured_RNA)
RNA: GAGGGGUCAGGGUUGAUUCGGGAGGAUCCUAUUGGUGCGGGGGCUUUGUAUGAUUAUGGGCGUUGAUUAGUAGUAGUUACUGGUUGAACAUUGUUUGUUGGUGUAUAUAUUGUAAUUGAGAUUGC
In the case of B3, in the data set with FASTK∆N1-75 [1] (label: Cy5 body (CTP or UTP), 5' 32P in footprinting, predicted G4), the Kd was 25.5 nM. The binding signal in data set [3] is 5 fold decrease vs wild type.

B4: U-rich short RNA (ssRNA)
RNA: UUUUCUGUUUUUUC
On to B4, for which the Kd with FASTK∆N1-75 [1] (label: Cy5) was found to be 63.2 nM.

B5: TERRA C-rich mutant (ssRNA)
RNA: UUACCCUUACCCUUACCCUUACCC
Consider B5, for which, in the data set with FASTK∆N1-75 [4], the binding result is recorded as “binds”.

B6: ND6 oligo 10 G4kill mutant (ssRNA)
RNA: GGAGGAUUGUUGUUUGGAAGGUGGAUGCGGAGGAAAUGUUGUUAGUAAUGAGAAAUCCUGCGAAUAGGCUUCCGG
With B6, the binding result in the data set with FASTK∆N1-75 [5] is “binds”.

B7: ND6 oligo 10 (structured_RNA)
RNA: GGGGGAUUGUUGUUUGGAAGGGGGAUGCGGGGGAAAUGUUGUUAGUAAUGAGAAAUCCUGCGAAUAGGCUUCCGG
For the molecule B7, in the data set with FASTK∆N1-75 [1] (label: Cy5 body (CTP or UTP), predicted G4), the Kd was 18.5 nM.

B8: TERRA AU-rich mutant (ssRNA)
RNA: UUAGAGUUAGUGUUAGAGUUAGUG
As for B8, in the data set with FASTK∆N1-75 [6], the Kd came to 6.4 nM.

B9: G-rich short RNA (internal loop strand 2) (ssRNA)
RNA: GGGUCUGUGGGGUC
As to B9, in the data set with FASTK∆N1-75 [1] (label: Cy5), the Kd was 2.7 nM.

B10: C-rich short RNA (ssRNA)
RNA: CCCUCUGUCCCCUC
In the case of B10, the Kd with FASTK∆N1-75 [1] (label: Cy5) was found to be 212 nM.

B11: TERRA (structured_RNA)
RNA: UUAGGGUUAGGGUUAGGGUUAGGG
As for B11, the dissociation constant Kd in the data set with FASTK∆N1-75 [6] (G4 intramolecular in K+) is 2.4 nM.
